This is an account of results in publication PMC3545062 (Structure (London, England : 1993), 2012).

Substitutions are numbered along the chain they refer to. Names and notes keep the numbering of the source.

Data set [1] addresses Cdc13 OB2 domain Y388A (S. cerevisiae) (UniProt P32797). The data set can be described thus: cross-linking.
The target in data set [2] is Cdc13 OB2 domain L401A (S. cerevisiae) (UniProt P32797). The data set can be described thus: cross-linking.
Data set [3] has as its target Cdc13 OB2 domain P371S (cdc13-1 mutation) (S. cerevisiae) (UniProt P32797). Put plainly: cross-linking.
The target in data set [4] is T1, Cdc13 construct consisting of residues 344-924 (domains OB2-DBD-OB4) (S. cerevisiae, UniProt P32797 344-924).
T1 sequence (looked up): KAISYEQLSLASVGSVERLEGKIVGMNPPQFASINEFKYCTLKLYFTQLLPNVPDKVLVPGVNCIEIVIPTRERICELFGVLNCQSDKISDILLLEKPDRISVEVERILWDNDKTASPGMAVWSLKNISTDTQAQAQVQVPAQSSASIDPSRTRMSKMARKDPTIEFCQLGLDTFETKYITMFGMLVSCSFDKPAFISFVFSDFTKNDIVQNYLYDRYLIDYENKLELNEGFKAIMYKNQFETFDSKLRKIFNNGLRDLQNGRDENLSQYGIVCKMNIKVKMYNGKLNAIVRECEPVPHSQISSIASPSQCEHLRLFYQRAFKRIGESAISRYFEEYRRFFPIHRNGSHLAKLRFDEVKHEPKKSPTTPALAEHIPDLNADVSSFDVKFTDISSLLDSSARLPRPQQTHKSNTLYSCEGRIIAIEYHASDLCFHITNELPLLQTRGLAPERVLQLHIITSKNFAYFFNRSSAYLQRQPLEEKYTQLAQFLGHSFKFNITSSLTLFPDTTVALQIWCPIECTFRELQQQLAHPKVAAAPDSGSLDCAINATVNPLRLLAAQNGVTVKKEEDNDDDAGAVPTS
Put plainly: ITC. For orientation: ITC needs no label: the signal is the heat of the interaction.

The data set “cross-linking” deals with the molecule itself. Put plainly: cross-linking.

Consider “Cdc13 OB2 domain Y388A (from UniProt P32797 344-495) (domain or fragment)”, for which, in data set [1], the percent reduction of OB2 dimerization (cross-linking) was determined as 70%.

Turning to “Cdc13 OB2 domain L401A (from UniProt P32797 344-495) (domain or fragment)”, the percent reduction of OB2 dimerization (cross-linking) in data set [2] amounted to 50%.

As for “Cdc13 OB2 domain P371S (cdc13-1 mutation) (from UniProt P32797 344-495) (domain or fragment)”, in data set [3], the percent reduction of OB2 dimerization (cross-linking) stood at 78%.

B1: C-terminal domain of Stn1, residues 311-494 (domain or fragment, S. cerevisiae, UniProt P38960 311-494, looked up)
chain: NRTSAKSNLMLILLGLQMKEISNSDLYKLKEVRSVVTSLASFLFQQQNVGVMKSFDSLEKEAFRDLVNRLVSQGLIGLKDKTSETFDLLPLKNLFEYAEKRISVLMKLQCYTGTVQLSHVQEKLHLPYITTNGIVDVFKECLKRTKKQYPEVLKNWWIDLDPKNGMEDQNSGILLHLEYAAAYS
As a reminder, the Kd is the constant that tells how readily two partners part at equilibrium. A low value points to tighter binding. B1 yielded a Kd in data set [4] of 6.4 µM.

B2: S. cerevisiae Cdc13 OB2 domain, wild type (domain or fragment, UniProt P32797 344-495, looked up)
chain: KAISYEQLSLASVGSVERLEGKIVGMNPPQFASINEFKYCTLKLYFTQLLPNVPDKVLVPGVNCIEIVIPTRERICELFGVLNCQSDKISDILLLEKPDRISVEVERILWDNDKTASPGMAVWSLKNISTDTQAQAQVQVPAQSSASIDPSR
The term stoichiometry N denotes a count of units in the complex or per binding partner. Take B2: the “stoichiometry N” value in the data set “cross-linking” is 2.

B3: Cdc13 OB2 domain C383S (domain or fragment, S. cerevisiae, UniProt P32797 344-495, looked up)
chain: B2 chain with C40S
For the molecule B3, in the data set “cross-linking”, the binding result is listed as “binds”.
